Reference: doi:10.1101/2025.08.04.668392 (bioRxiv, 2025)
Numbering of substitutions follows the chain as printed. In names and notes the source's numbering stands. Blank lines part the entries; values can stand above or below the molecule they belong to.

Columns and labels:
[1] = molecular target: His-tagged Importin β (Impβ), H. sapiens, from pQE60-Impβ (human) (UniProt Q14974); experiment: ITC
[2] = molecular target: His-tagged Importin β (Impβ), H. sapiens, from pQE60-Impβ (human, UniProt Q14974 1-876); experiment: ITC
[3] = molecular target: Importin β (hsImpβ) of the purified trimeric complex Impβ:Imp7:H1.11L-chick (human, UniProt Q14974 1-876); experiment: cross-linking
Sequence of Importin β (hsImpβ) of the purified trimeric complex Impβ:Imp7:H1.11L-chick (Q14974 whole entry, one chain of several): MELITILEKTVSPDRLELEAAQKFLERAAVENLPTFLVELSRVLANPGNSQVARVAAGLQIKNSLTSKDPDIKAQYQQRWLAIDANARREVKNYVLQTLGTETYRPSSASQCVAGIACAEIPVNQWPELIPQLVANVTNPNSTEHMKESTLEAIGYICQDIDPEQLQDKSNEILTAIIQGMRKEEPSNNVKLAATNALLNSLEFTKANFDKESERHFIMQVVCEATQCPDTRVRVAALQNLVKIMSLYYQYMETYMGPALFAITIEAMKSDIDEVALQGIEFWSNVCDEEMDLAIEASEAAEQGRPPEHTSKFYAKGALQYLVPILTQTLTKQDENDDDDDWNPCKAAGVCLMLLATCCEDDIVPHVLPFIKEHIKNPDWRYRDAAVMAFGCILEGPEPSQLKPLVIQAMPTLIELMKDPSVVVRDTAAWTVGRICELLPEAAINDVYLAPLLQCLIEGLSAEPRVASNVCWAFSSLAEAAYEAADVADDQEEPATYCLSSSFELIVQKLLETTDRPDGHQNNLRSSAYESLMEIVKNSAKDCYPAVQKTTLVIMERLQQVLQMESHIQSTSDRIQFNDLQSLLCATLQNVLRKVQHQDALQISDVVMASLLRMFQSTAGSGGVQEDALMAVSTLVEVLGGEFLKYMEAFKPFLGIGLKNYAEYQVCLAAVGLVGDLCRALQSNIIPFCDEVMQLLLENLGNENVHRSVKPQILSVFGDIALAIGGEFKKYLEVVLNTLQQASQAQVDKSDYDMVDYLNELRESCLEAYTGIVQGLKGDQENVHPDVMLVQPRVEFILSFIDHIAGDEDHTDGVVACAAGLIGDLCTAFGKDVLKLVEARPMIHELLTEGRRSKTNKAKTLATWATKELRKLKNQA

Sequence of His-tagged Importin β (Impβ), H. sapiens, from pQE60-Impβ (Q14974 whole entry): as the sequence (Q14974 whole entry, one chain of several) above
Sequence of His-tagged Importin β (Impβ), H. sapiens, from pQE60-Impβ (human) (Q14974 whole entry): as the sequence (Q14974 whole entry, one chain of several) above

fold reduction of affinity against the wild-type NlB region (1002-1038) [1]: 15 fold
Molecule: GST-tagged Imp7 (1002-1038) fragment V1023E (domain or fragment)

fold reduction of binding against the wild-type NlB region (1002-1038) [1]: 7 fold
Molecule: GST-tagged Imp7 (1002-1038) fragment P1024G (domain or fragment)

fold reduction of affinity against the wild-type NlB region (1002-1038) [2]: ≥ 5 fold
B3: GST-tagged Imp7 (1002-1038) fragment F1019Y (domain or fragment, X. laevis, UniProt O42480 1002-1038, looked up)
chain: RRAAHESKMIEKHGGYKYNAPVVPSTFNFGNPAPGMN

fold reduction of affinity against the wild-type NlB region (1002-1038) [2]: ≥ 5 fold
B5: GST-tagged Imp7 (1002-1038) fragment F1028Y (domain or fragment, X. laevis, UniProt O42480 1002-1038, looked up)
chain: B3 chain with Y18F, F27Y

fold increase of affinity against the wild-type NlB region (1002-1038) [2]: ~2 fold
B7: GST-tagged Imp7 (1002-1038) fragment N1029S (domain or fragment, X. laevis, UniProt O42480 1002-1038, looked up)
chain: B3 chain with Y18F, N28S

More lines, now with the values behind:

Molecule: GST-tagged Imp7 (1002-1038) fragment V1023T (domain or fragment)
fold reduction of affinity against the wild-type NlB region (1002-1038) [1]: 4 fold

B1: GST-NlB 1016-1030 (domain or fragment, X. laevis, UniProt O42480 1016-1030, looked up)
chain: GYKFNAPVVPSTFNF
fold reduction of affinity against the NlB region (1002-1038) [2]: ~4 fold

B2: Histone H1.11L from chicken (natural protein, chicken (Gallus gallus), UniProt P08287 1-225, looked up)
chain: MSETAPAPAAEAAPAAAPAPAKAAAKKPKKAAGGAKARKPAGPSVTELITKAVSASKERKGLSLAALKKALAAGGYDVEKNNSRIKLGLKSLVSKGTLVQTKGTGASGSFRLSKKPGEVKEKAPKKKASAAKPKKPAAKKPAAAAKKPKKAVAVKKSPKKAKKPAASATKKSAKSPKKVTKAVKPKKAVAAKSPAKAKAVKPKAAKPKAAKPKAAKAKKAAAKKK
binding result [3]: binds

B4: GST-tagged Imp7 (1002-1038) fragment F1030Y (domain or fragment, X. laevis, UniProt O42480 1002-1038, looked up)
chain: B3 chain with Y18F, F29Y
fold reduction of affinity against the wild-type NlB region (1002-1038) [2]: ≥ 5 fold

B6: GST-tagged Imp7 (1002-1038) fragment N1032G (domain or fragment, X. laevis, UniProt O42480 1002-1038, looked up)
chain: B3 chain with Y18F, N31G
fold increase of affinity against the wild-type NlB region (1002-1038) [2]: ~2 fold
